Measured values from patent US20190309079A1 (Regeneron, published 2019).
Each block holds one binder with its values, some of them ahead of it.

Key:
Assay in all cases: Luminex, myc-captured protein on beads
[1] = biological target: T1, human LEPR extracellular domain expressed with a C-terminal myc-myc-hexahistidine tag (hLEPR.mmh) (human, UniProt P48357 22-839)
T1 construct: tag included in the entry; also called human LEPR-MMH; monomeric human LEPR
Description: (§1) Aliquots of microspheres with immobilized anti-myc monoclonal antibodies, prepared as described above, were added individually to 1 mL of the each of these protein supernatants. The microspheres were gently mixed, incubated for two hours at 25° C., washed twice with 1 mL of DBPS, centrifuged to remove the supernatant and finally resuspended in 1 mL of DPBS buffer. […] of anti-myc IgG coupled microspheres from individual reactions with full length human LEPR and with each of the human LEPR domain proteins were withdrawn and mixed together in 3.6 mL of PBS+20 mg/mL BSA+0.05% sodium azide (blocking buffer).
(§2) From this mixed pool, 75 μL of microspheres were plated per well on a 96 well filter plate (Millipore, Cat. No: MSBVN1250) and mixed with 25 μL of individual anti-human LEPR monoclonal antibodies (0.5 or 5 μg/mL), incubated for two hours at 25° C. and then washed twice with 200 μL of DPBS with 0.05% Tween 20 (washing buffer). […] After 30 minutes, the samples were washed twice with 200 µL of washing buffer and resuspended in 150 μL of wash buffer. The Median Fluorescence intensity (MFI) of the microspheres was measured in a Luminex Analyzer.

[2] = biological target: T2, human LEPR CRH1 (D1,D2)-MMH (human, UniProt P48357 22-339, limits assumed)
T2 construct: domain: CRH1 (D1,D2)
T2 sequence (looked up): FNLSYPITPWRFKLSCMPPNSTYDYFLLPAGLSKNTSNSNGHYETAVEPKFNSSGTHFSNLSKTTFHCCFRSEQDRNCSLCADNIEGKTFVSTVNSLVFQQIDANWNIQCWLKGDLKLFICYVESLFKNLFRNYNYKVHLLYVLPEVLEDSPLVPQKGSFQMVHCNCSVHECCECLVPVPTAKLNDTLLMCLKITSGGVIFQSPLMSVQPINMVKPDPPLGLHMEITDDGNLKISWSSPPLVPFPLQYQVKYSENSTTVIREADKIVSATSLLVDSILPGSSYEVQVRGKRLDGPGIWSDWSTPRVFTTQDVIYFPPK
Description: as §1, §2

[3] = biological target: T3, human LEPR CRH1-Ig (D1,D2,D3)-MMH (human, UniProt P48357 22-427, limits assumed)
T3 construct: domain: CRH1-Ig (D1,D2,D3); also called human LEPR CRH1 (D1,D2,D3)-MMH
T3 sequence (looked up): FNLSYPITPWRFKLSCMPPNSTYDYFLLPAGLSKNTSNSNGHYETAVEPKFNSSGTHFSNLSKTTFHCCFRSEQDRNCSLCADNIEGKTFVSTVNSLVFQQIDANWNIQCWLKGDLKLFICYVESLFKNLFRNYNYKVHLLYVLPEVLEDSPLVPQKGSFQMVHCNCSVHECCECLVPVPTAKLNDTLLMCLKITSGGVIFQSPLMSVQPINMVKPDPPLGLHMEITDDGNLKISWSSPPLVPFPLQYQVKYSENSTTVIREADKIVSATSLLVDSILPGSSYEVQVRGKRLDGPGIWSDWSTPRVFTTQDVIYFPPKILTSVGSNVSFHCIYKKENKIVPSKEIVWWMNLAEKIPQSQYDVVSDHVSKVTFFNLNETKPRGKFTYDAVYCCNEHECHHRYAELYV
Description: as §1, §2

[4] = biological target: T4, human LEPR CRH1-Ig (D2,D3)-MMH (human, UniProt P48357 230-427, limits assumed)
T4 construct: domain: CRH1-Ig (D2,D3)
T4 sequence (looked up): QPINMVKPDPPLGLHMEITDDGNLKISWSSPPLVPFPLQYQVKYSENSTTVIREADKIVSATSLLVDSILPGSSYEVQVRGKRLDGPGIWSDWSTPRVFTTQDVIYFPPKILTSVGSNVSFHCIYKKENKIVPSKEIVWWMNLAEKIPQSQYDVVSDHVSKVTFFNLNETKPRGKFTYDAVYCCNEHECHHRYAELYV
Description: as §1, §2

human LEPR Ig (D3)-MMH = biological target: T5, human LEPR Ig (D3)-MMH (human, UniProt P48357 340-427, limits assumed)
T5 construct: domain: Ig (D3)
T5 sequence (looked up): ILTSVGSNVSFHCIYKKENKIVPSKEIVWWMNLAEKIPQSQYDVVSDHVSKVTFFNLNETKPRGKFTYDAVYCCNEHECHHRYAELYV
Description: as §1, §2

human LEPR FNIII-MMH = biological target: T6, human LEPR FNIII-MMH (human, UniProt P48357 636-839, limits assumed)
T6 construct: domain: FNIII
T6 sequence (looked up): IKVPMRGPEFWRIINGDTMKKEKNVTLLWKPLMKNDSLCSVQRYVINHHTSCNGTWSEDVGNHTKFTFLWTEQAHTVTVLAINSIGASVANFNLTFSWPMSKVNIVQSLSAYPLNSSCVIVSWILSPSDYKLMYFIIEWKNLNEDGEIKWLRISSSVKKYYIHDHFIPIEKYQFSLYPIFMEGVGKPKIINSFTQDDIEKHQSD
Description: as §1, §2

[5] = biological target: T7, human LEPR Ig-CRH2-FNIII-MMH (human, UniProt P48357 330-839, limits assumed)
T7 construct: domain: Ig-CRH2-FNIII
T7 sequence (looked up): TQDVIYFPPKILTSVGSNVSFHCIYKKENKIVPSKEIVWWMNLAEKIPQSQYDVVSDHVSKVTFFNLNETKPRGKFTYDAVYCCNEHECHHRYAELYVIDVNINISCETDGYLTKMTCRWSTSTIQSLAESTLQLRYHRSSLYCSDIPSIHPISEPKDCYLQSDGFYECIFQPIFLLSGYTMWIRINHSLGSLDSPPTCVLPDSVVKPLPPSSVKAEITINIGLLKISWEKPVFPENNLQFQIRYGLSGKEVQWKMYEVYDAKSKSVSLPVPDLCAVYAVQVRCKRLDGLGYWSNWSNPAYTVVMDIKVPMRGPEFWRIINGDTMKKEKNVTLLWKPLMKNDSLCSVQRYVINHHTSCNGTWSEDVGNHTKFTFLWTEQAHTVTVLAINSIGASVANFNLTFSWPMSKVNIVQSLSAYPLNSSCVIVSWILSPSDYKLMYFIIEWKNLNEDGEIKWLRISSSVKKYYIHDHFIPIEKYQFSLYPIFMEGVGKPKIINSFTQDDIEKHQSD
Description: as §1, §2

- Luminex MFI [1]: 6570 MFI
- Luminex MFI [2]: 30 MFI
- Luminex MFI [3]: 22 MFI
- Luminex MFI [4]: 40 MFI
- Luminex MFI (human LEPR Ig (D3)-MMH): 19 MFI
- Luminex MFI (human LEPR FNIII-MMH): 230 MFI
- Luminex MFI [5]: 14500 MFI
B1: H4H18445P2 (antibody, human IgG4, V domains shown)
VH: QVQLQESGPGLVKPSQTLSLTCTVSGGSISSGGDYWSWIRQLPGKGLEWIGYIYYSGSAYYNPSLKSRGTISIDTSKNQFSLKLTSVTAADTAVYFCVKLRFLEWFLGGWFGPWGQGTLVTVSS
VL: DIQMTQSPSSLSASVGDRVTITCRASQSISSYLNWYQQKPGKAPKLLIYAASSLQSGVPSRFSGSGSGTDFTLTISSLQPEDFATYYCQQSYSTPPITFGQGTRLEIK
notes: human IgG4 Fc

- Luminex MFI [1]: 7980 MFI
- Luminex MFI [2]: 2930 MFI
- Luminex MFI [3]: 2060 MFI
- Luminex MFI [4]: 42 MFI
- Luminex MFI (human LEPR Ig (D3)-MMH): 24 MFI
- Luminex MFI (human LEPR FNIII-MMH): 13 MFI
- Luminex MFI [5]: 43 MFI
B3: H4H18449P2 (antibody, human IgG4, V domains shown)
VH: EVQLVESGGGLVQPGGSLRLSCVASGFTFNKYDMHWVRQTTGKGLEWVSGIDTDGDTYYPGSVKGRFTISRENAENSLYLQMNGLRVGDTAVYYCARWPWSGFYGAFDIWGQGTMVTVSS
VL: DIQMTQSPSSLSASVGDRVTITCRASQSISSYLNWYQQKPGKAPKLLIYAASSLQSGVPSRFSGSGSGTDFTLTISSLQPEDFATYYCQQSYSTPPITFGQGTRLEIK
notes: human IgG4 Fc

- Luminex MFI [1]: 3300 MFI
- Luminex MFI [2]: 1250 MFI
- Luminex MFI [3]: 938 MFI
- Luminex MFI [4]: 14 MFI
- Luminex MFI (human LEPR Ig (D3)-MMH): 8 MFI
- Luminex MFI (human LEPR FNIII-MMH): 20 MFI
- Luminex MFI [5]: 8 MFI
B7: H4H17319P2 (antibody, V domains shown)
VH: QVQLVESGGSVVQPGRSLRLSCAASGFTFSTYAMYWVRQTPGKGLEWVAVLYSDGSNKYYIDSVKGRFTISRDTSTNTLYLQMSSLRADDSALYYCARLNWDYWYFDLWGRGTLVTVSS
VL: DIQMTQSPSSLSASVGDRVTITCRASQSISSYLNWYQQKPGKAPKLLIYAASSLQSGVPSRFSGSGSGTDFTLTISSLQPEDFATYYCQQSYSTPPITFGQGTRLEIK
notes: also called REGN4461

- Luminex MFI [1]: 7600 MFI
- Luminex MFI [2]: 4720 MFI
- Luminex MFI [3]: 2560 MFI
- Luminex MFI [4]: 74 MFI
- Luminex MFI (human LEPR Ig (D3)-MMH): 10 MFI
- Luminex MFI (human LEPR FNIII-MMH): 6 MFI
- Luminex MFI [5]: 110 MFI
B8: H4H16650P2 (antibody, V domains shown)
VH: QVQLVESGGGVVQPGKSLRLSCVASGFTFSSDAMYWVRQAPGKGLEWVAVIYYDGNYQYYEDSVKGRFTISRDNSQNTLDLQMNSLRVDDTAVYFCARLNWDYWYLDLWGRGTLVTVSS
VL: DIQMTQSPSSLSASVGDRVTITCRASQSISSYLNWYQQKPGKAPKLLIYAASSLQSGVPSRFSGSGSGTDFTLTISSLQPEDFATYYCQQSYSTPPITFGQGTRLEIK

- Luminex MFI [1]: 4890 MFI
- Luminex MFI [2]: 16000 MFI
- Luminex MFI [3]: 3330 MFI
- Luminex MFI [4]: 5500 MFI
- Luminex MFI (human LEPR Ig (D3)-MMH): 17 MFI
- Luminex MFI (human LEPR FNIII-MMH): 14 MFI
- Luminex MFI [5]: 37 MFI
B9: H4H18417P2 (antibody, V domains shown)
VH: QVQLVESGGGVVQPGRSLRLSCAASGFTFSTYGMHWVRQAPGKGLEWVSVISYDESNKYYADSVKGRFTISRDNSKNALYLQMNSLRNEDTAVYYCARDRPFGLVTGWFDPWGQGTLVTVSS
VL: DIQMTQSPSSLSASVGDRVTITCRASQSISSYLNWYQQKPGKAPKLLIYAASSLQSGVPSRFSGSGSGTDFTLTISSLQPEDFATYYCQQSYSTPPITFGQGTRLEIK

Further lines, the binder ahead of its results:

B2: H4H18438P2 (antibody, V domains shown)
VH: QVQLVESGGGVVQPGRSLRLSCAASGFSFNTYGMHWVRQAPGKGLEWVTIIWYDGSIKYYADSVKGRFTISRDNSKNTLYLQMNSLRAEDTAVYYCARGGYSGYLYFDYWGQGTLVTVSS
VL: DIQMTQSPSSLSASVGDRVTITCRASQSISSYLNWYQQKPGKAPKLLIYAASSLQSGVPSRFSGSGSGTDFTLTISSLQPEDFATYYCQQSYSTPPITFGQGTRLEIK
- Luminex MFI [1]: 6250 MFI
- Luminex MFI [2]: 18900 MFI
- Luminex MFI [3]: 6570 MFI
- Luminex MFI [4]: 8880 MFI
- Luminex MFI (human LEPR Ig (D3)-MMH): 30 MFI
- Luminex MFI (human LEPR FNIII-MMH): 25 MFI

B4: H4H18446P2 (antibody, human IgG4, V domains shown)
VH: EVQLVESGGGLVQPGGSLRLSCAASGFTFSNYGMTWVRQAPGKGLEWVSAITGGGGSTYYSNSVKGRFTISRDNSKNTVYLRMNSVRAEDTAVYYCAKYKWNFVDDWGQGTTVTVSS
VL: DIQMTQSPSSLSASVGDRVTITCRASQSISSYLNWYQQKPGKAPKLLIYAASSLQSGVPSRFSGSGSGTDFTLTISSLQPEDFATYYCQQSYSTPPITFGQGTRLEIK
notes: human IgG4 Fc
- Luminex MFI [1]: 10500 MFI
- Luminex MFI [2]: 682 MFI
- Luminex MFI (human LEPR Ig (D3)-MMH): 25 MFI
- Luminex MFI (human LEPR FNIII-MMH): 32 MFI
- Luminex MFI [5]: 16900 MFI

B5: H4H16679P2 (antibody, V domains shown)
VH: QVQLVESGGGVVQPGRSLRLSCTASGFTFSSYAMYWVRQAPGKGLEWVSVIYYDGSYKYYADSVKGRFTISRDNSKNTLYLQMDSLRAEDTAVYYCASYNWNYWYFDFWGRGTLVTVSS
VL: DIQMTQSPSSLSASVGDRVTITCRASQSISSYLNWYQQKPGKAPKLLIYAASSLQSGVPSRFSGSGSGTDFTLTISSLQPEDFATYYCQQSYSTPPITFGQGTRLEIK
- Luminex MFI [1]: 7510 MFI
- Luminex MFI [2]: 4390 MFI
- Luminex MFI [3]: 2800 MFI
- Luminex MFI [4]: 34 MFI
- Luminex MFI (human LEPR Ig (D3)-MMH): 14 MFI
- Luminex MFI (human LEPR FNIII-MMH): 10 MFI
- Luminex MFI [5]: 42 MFI

B6: H4H17321P2 (antibody, V domains shown)
VH: QVQLVESGGGVVQPGRSLRLSCEASGFSSSDNAMYWVRQAPGKGLEWVSVIYHDGSYKYYEDSVKGRFTIARDNSKNTLYLQMNSLRAEDTAVYYCARYNWNHWYFDVWGRGTLVTVSS
VL: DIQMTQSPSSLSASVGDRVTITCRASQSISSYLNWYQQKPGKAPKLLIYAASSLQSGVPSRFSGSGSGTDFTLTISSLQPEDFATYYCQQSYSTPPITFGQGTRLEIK
- Luminex MFI [1]: 4700 MFI
- Luminex MFI [2]: 2650 MFI
- Luminex MFI [3]: 1750 MFI
- Luminex MFI [4]: 15 MFI
- Luminex MFI (human LEPR Ig (D3)-MMH): 7 MFI
- Luminex MFI (human LEPR FNIII-MMH): 40 MFI
- Luminex MFI [5]: 14 MFI
